According to US12545745B2, “Method for treating a degenerative neurological disorders comprising administering ASM inhibitor” (KYUNGPOOK NATIONAL UNIVERSITY INDUSTRY-ACADEMIC COOPERATION …, priority 2013, dated 2026):

System: APP/PS1 mice
Assay: Morris water maze (MWM) test in APP/PS1 mice
Assay type: in vivo, mouse
Conditions: 50 mg/kg i.p. twice weekly, vs PBS, FIG. 55A-55C
Protocol: More specifically, wild type mice, APP/PS1/ASM^+/− mice, ASM^+/− mice and APP/PS1 mice were used. The mice were given four trials per day for 10 days to learn the task, and on day 11, the mice were given a probe trial in which the platform was removed. The escape latency during the test period and the time spent in the target platform on day 11 were measured. The results are illustrated in FIG. 7 and FIG. 8.
MWM (Morris water maze) experiments were performed in a conventional manner to identify potential effects on learning and memory. Briefly, for the MWM test, mouse were learned the task four times a day for 10 days, followed by the removal of the platform on the 11th day and subsequently a probe trial performed.
MWM (Morris water maze) experiments were performed in a conventional manner to identify potential effects on learning and memory. Briefly, for the MWM test, mice were learned the task four times a day for 10 days, followed by the removal of the platform on the 11th day and subsequently a probe trial performed.

B1: ASM-ab 23A12C3: self-made monoclonal ASM antibody, Koma biotech; heavy chain SEQ ID NO. 29, light chain SEQ ID NO. 30 (antibody)
heavy: MGWSWIFLFLLSGTAGVHSEVQLQQSGPVLVKPGASVKMSCKASGYTFTDYYMNWVKQSHGKSLEWIGVINPYNDGTSYNQKFKGKATLTVDKSSSTAYMELNSLTSEDSAVYYCAREKLYYYGRDYAMDYWGQGTSVTVSSAKTTPPSVYPLAPGSAAQTNSMVTLGCLVKGYFPEPVTVTWNSGSLSSGVHTFPAVLQSDLYTLSSSVTVPSSTWPSQTVTCNVAHPASSTKVDKKIVPRDCGCKPCICTVPEVSSVFIFPPKPKDVLTITLTPKVTCVVVDISKDDPEVQFSWFVDDVEVHTAQTKPREEQINSTFRSVSELPIMHQDWLNGKEFKCRVNSAAFPAPIEKTISKTKGRPKAPQVYTIPPPKEQMAKDKVSLTCMITNFFPEDITVEWQWNGQPAENYKNTQPIMDTDGSYFVYSKLNVQKSNWEAGNTFTCSVLHEGLHNHHTEKSLSHSPGK
light: MSSAQFLGLLLLCFQGTRCDIQMTQTTSSLSASLGDRVTISCRSSQDISNYLNWCQQKPDGTVKLLIYYTSRLHSGVPSRFSGSGSGTDYSLTISNLEQEDIATYFCQQDNTLPYTFGGGTKLEIKRADAAPTVSIFPPSSEQLTSGGASVVCFLNNFYPKDINVKWKIDGSERQNGVLNSWTDQDSKDSTYSMSSTLTLTKDEYERHNSYTCEATHKTSTSPIVKSFNRNEC
modifications: 23A12C3_Heavy chain; 23A12C3_Light chain
notes: self-made monoclonal ASM antibody, Koma biotech; 30
- impairments in spatial memory, cognition and memory formation (MWM): improved
